Where a chain is given by its changes, count along the chain named. In names and notes the source's numbering stands. Several values for one entry are separate records, joined by “and”; a condition that tells them apart may be missing. Equal values may be shown once. Each block holds one molecule with its values, some of them ahead of it.
How the values were obtained:
[1] = target: OmpC(K281am) with benzoyl phenylalanine (Bpa) at residue 281 (E. coli) (UniProt P06996); assay: SDS-PAGE of unheated and heated samples (heat-sensitive oligomers); OmpC amber mutants synthesized in PURExpress lacking release factor 1 with FluoroTect, tRNATAG-BPA, SurA, Rc LPS and Bam POPC proteoliposomes; 30 min, 30°C; with or without UV
[2] = target: OmpC(K255am) with benzoyl phenylalanine (Bpa) at residue 255 (E. coli) (UniProt P06996); assay: as above
[3] = target: the molecule itself; assay: SDS-PAGE of unheated and heated samples (heat-sensitive oligomers), with proteinase K; OmpC synthesized in PURExpress with FluoroTect, SurA, smooth LPS from E. coli O55:B5 (0.5 mg/ml) and Bam DLPC proteoliposomes; 30 min, 37°C
[4] = target: the molecule itself; assay: SDS-PAGE of unheated and heated samples (heat-sensitive oligomers), with proteinase K; 0.2 μM urea-denatured OmpC S71C-BODIPY-FL added to SurA, Bam proteoliposomes (text: Bam DLPC; legend: Bam DMPC) and Rc LPS in a complete mixture of PURExpress components; 30 min, 37°C
[5] = target: the molecule itself; assay: SDS-PAGE of unheated samples (oligomers), colloidal blue staining; urea-denatured OmpC folded into 1% DDM-0.4% DDG, 50 mM Tris pH 8.0, 1 mM DTT, 0.1 mM EDTA; 37°C, 24 h

stoichiometry N [1]: 3
Molecule: OmpC(K281am) with benzoyl phenylalanine (Bpa) at residue 281 (from UniProt P06996 22-367) (natural protein)

stoichiometry N [2]: 3
Molecule: OmpC(K255am) with benzoyl phenylalanine (Bpa) at residue 255 (from UniProt P06996 22-367) (natural protein)

B1: E. coli OmpC (wild type), synthesized in vitro without its signal peptide (natural protein, UniProt P06996 22-367, looked up)
chain: AEVYNKDGNKLDLYGKVDGLHYFSDNKDVDGDQTYMRLGFKGETQVTDQLTGYGQWEYQIQGNSAENENNSWTRVAFAGLKFQDVGSFDYGRNYGVVYDVTSWTDVLPEFGGDTYGSDNFMQQRGNGFATYRNTDFFGLVDGLNFAVQYQGKNGNPSGEGFTSGVTNNGRDALRQNGDGVGGSITYDYEGFGIGGAISSSKRTDAQNTAAYIGNGDRAETYTGGLKYDANNIYLAAQYTQTYNATRVGSLGWANKAQNFEAVAQYQFDFGLRPSLAYLQSKGKNLGRGYDDEDILKYVDVGATYYFNKNMSTYVDYKINLLDDNQFTRDAGINTDNIVALGLVYQF
modifications: fluorescent lysine residues (BODIPY-FL at the ε position, from FluoroTect GreenLys) incorporated during synthesis
stoichiometry N [3]: 2 and 3

B2: Urea-denatured OmpC S71C, fluorescently labeled at residue 71 with BODIPY-FL (natural protein, E. coli, UniProt P06996 22-367, looked up)
chain: B1 chain with S71C
modifications: BODIPY-FL maleimide on the cysteine at 71
stoichiometry N [4]: 2 and 3

B3: Urea-denatured wild-type OmpC purified from inclusion bodies (natural protein, E. coli, UniProt P06996 22-367, looked up)
chain: B1 chain
stoichiometry N [5]: 3

From article PMC8406188 (mBio, 2021)
